One variant from IntAct's records for PubMed 18477474 can be followed below.

The labels stand for the following.
B1: Ras-related protein Rab-38 (Mus musculus), Q8QZZ8 (parent)
chain: MQTPHKEHLYKLLVIGDLGVGKTSIIKRYVHQNFSSHYRATIGVDFALKVLHWDPETVVRLQLWDIAGQERFGNMTRVYYREAMGAFIVFDVTRPATFEAVAKWKNDLDSKLTLPNGKPVSVVLLANKCDQGKDVLMNNGLKMDQFCKEHGFVGWFETSAKENINIDEASRCLVKHILANECDLLESIEPDIVKPHLTSPKVVSCSGCAKS
partner: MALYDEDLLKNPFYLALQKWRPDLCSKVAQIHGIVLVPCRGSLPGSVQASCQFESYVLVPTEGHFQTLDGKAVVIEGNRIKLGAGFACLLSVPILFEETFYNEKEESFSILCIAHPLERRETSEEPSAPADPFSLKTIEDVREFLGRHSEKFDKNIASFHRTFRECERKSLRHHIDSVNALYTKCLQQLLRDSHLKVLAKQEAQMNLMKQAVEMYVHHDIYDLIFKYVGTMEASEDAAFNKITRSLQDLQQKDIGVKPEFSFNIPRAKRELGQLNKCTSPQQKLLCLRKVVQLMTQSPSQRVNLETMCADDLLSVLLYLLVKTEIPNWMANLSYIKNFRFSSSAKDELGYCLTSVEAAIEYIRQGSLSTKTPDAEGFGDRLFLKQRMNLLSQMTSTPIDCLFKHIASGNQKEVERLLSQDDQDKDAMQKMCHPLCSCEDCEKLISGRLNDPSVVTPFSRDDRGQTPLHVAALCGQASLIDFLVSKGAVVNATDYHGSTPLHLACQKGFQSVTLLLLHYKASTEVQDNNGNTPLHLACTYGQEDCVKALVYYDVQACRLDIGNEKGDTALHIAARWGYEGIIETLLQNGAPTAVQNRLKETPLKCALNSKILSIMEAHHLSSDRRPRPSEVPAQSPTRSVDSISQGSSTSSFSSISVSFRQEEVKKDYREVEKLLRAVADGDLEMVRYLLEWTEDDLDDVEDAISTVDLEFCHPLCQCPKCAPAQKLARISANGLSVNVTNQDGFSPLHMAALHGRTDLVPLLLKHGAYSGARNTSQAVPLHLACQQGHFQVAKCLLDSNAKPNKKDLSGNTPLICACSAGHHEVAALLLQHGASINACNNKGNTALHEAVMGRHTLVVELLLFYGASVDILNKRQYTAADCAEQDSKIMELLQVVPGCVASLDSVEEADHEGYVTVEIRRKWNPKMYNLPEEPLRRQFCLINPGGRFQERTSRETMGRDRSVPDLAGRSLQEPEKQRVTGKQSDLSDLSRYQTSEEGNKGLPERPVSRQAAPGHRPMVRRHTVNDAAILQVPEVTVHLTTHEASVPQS

This experiment covers variants of B1. Particulars: with anr27_mouse Ankrd27, Q3UMR0.
In the case of MQTPHKEHLYKLLVIGDLGVGKNSIIKRYVHQNFSSHYRATIGVDFALKVLHWDPETVVRLQLWDIAGQERFGNMTRVYYREAMGAFIVFDVTRPATFEAVAKWKNDLDSKLTLPNGKPVSVVLLANKCDQGKDVLMNNGLKMDQFCKEHGFVGWFETSAKENINIDEASRCLVKHILANECDLLESIEPDIVKPHLTSPKVVSCSGCAKS [T23N], the “effect of a mutation on the interaction” value is “disrupting interaction”.
